# Tests used:
# P-selectin = target: T1, P-selectin (Homo sapiens, UniProt P16109); test: CHO-P cell rolling on immobilized immunoprecipitates, parallel-plate flow chamber; assay type: cell-based; conditions: 2.8 dynes/cm^2
# T1 construct: CHO-P (CHO stably transfected with human cDNA encoding full length P-selectin); expressed in transfected cells
# T1 sequence (P16109 42-830): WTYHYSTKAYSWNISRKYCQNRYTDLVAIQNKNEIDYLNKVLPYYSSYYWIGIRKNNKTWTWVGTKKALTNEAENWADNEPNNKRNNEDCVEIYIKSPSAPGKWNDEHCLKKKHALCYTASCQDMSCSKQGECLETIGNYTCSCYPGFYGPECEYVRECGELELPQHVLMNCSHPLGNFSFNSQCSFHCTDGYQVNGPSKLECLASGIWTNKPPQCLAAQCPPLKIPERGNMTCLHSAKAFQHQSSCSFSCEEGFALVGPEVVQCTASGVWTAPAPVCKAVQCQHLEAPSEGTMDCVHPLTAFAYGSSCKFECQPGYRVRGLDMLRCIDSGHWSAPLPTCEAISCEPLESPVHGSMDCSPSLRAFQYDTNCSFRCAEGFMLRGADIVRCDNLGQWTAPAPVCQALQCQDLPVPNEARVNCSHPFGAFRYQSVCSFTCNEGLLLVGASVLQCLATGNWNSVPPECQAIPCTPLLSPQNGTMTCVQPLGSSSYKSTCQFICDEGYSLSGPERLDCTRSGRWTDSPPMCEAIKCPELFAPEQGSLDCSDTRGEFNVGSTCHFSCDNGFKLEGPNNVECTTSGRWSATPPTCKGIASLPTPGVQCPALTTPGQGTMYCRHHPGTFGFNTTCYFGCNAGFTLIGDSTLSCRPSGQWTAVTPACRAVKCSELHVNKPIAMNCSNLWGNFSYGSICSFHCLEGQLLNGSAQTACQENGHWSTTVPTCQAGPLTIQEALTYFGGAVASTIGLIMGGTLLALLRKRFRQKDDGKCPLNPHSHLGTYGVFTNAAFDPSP
# Experimental: CD44 or PSGL-1 immunoprecipitates were spotted onto plastic petri dishes, fixed in 3% glutaraldehyde and incubated in 0.2M lysine to block unreactive aldehyde groups, and then non-specific binding was prevented by incubating in 100% FBS for 1 hr at RT. Fixed spots were also treated with Vibrio cholerae neuraminidase (0.1 U/ml assay medium), which was overlaid onto the spots and incubated at 37° C. for 1 hr. The protein dishes were placed in the parallel-plate flow chamber and CHO-E, CHO-P (CHO stably transfected with human cDNA encoding full length P-selectin), CHO-P cells treated with function blocking anti-P-selectin moAb (clone AK-4; Pharmingen) (10 μg/ml), CHO-E cells treated with function blocking anti-E-selectin Abs (10 μg/ml) (clone 68-5H1 1) or Mock transfectants were perfused into the chamber (2×10^6/ml H/H/Ca++) at a flow rate of 0.2 ml/min until the cells were in contact with the substrate. The flow rate was then increased to achieve a shear stress of 2.8 dynes/cm^2. The frequency of cells rolling per 100× magnification field was determined, and data were expressed as the mean±standard deviation of 8 fields visualized from a minimum of 3 experiments.
# E-selectin = target: T2, E-selectin (Homo sapiens, UniProt P16581); test: CHO-E cell rolling on immobilized immunoprecipitates, parallel-plate flow chamber; assay type: cell-based; conditions: immunoprecipitates on plastic; 2.8 dynes/cm^2
# T2 construct: stably transfected with full-length cDNA encoding human E-selectin; expressed in transfected cells
# T2 sequence (P16581 22-610): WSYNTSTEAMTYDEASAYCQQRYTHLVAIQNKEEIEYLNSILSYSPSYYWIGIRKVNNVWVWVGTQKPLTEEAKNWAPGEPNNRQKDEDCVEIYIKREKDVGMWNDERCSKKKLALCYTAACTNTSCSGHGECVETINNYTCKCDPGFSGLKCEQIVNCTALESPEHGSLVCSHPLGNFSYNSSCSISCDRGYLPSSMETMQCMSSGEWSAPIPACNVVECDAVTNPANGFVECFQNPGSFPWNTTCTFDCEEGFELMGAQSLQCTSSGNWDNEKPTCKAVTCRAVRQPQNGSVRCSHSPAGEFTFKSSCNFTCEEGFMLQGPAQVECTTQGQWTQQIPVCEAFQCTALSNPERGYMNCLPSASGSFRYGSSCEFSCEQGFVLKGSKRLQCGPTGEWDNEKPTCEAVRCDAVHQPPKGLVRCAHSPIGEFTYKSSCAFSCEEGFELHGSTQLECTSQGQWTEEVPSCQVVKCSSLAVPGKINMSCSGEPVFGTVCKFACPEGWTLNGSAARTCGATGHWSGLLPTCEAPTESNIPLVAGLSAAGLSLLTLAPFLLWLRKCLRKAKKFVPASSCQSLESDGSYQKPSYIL
substance,measurement,setting,value
"KG1a CD44: glycoform of CD44 with HECA-452 reactive sialylated, fucosylated N-glycans, immunoprecipitated from KG1a cells with Hermes-1",P-selectin ligand activity (CHO-P cell rolling),P-selectin,not a P-selectin ligand
same,E-selectin ligand activity (CHO-E cell rolling),E-selectin,exhibited E-selectin ligand activity over a range of shear stress
